Data taken from the supplement of paper PMC12042874.
± gives the uncertainty stated by the source.

Assay: amyloid nucleation score (Sup35N fusion, yeast selection) (log enrichment); library NNK3; higher = more nucleation; inactive = no reads after selection
Procedure, shortened: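 Three technical output replicates were used for random libraries. Psi-negative yeast expressing peptides of 20 random codons fused to Sup35N were induced with 100 μM copper sulfate for 24 hours and grown 7 days at 30°C on medium lacking adenine and uracil, and input and output plasmid inserts were Illumina-sequenced, excluding sequences with under 100 input reads. The nucleation score is the DiMSum log enrichment of output over input reads, centred on the mode score of non-aggregating sequences.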

Row | Substance | amyloid nucleation score
1 | GKGPNCMGASFLNGAHWSGI | inactive
2 | CTYIVHATVEPVYDNDLLKW | inactive
3 | LCETYYHHTARGLHLASLVS | inactive
4 | RKMFWDGF | inactive
5 | GQHSRSLDTSACCPT | inactive
6 | AYQCHDDVVWWRCQMASCS | inactive
7 | LAAEFTFMRPARGYFGNKVG | inactive
8 | FILRVFMA | inactive
9 | LRTAEDFETS | -0.416 ± 1.5
10 | DTNGMMRAMLRYPIIRFLYA | -0.402 ± 0.63
11 | RDCDDQ | inactive
12 | DCPLNNVTSLSHP | inactive
13 | YKSLIVNANYCDLGFLRGWC | 2.6 ± 0.064
14 | HCLSHTLQHNHTMISANSRS | inactive
15 | LTVNDDFRYKAFWVCRSMFV | inactive
16 | AYSSQSTCTFCASIFSDSKI | 2.68 ± 0.077
17 | VYETELTFSARPRFCWCC | 0.094 ± 0.59
18 | IGYGGSIPRHSTCDVSLQRW | inactive
19 | KRVLEGRFITVSM | inactive
20 | TEHKVSFPHFVKYKPSLSSY | inactive
21 | MSMYVTSF | inactive

Row | Substance | amyloid nucleation score
22 | WSRSNGVFVGGRNCFLAQDF | inactive
23 | WHTAKGTWSTGRQEDTGQSR | inactive
24 | GNYSREVRKNVYPETGVRQM | inactive
25 | RQVVRSTLRLSWSIFLYSYM | inactive
26 | CFVLFLNLLVATGPIWINSP | 0.477 ± 0.2
27 | QSCCF | inactive
28 | CFSNLGCTGWRT | -0.684 ± 1.2
29 | SHVLWCNMVNEFVHTLSRCG | 1.34 ± 0.082
30 | RKERGSVFGSIWQFSCIRR | 0.731 ± 0.25
31 | YFLFNTYWDRALQSKTVGGL | inactive
32 | PKSLLVPIIRPMQVWRKFDL | inactive
33 | MIKMAIRNLGYCSDYRTLCR | inactive
34 | VFGRLFIQMPKLTINQGKFH | 1.83 ± 0.089
35 | YAFISDYQYGILFYIKWYFG | inactive
36 | FTNFCS | inactive
37 | GSSRQNY | inactive
38 | VCLLSS | inactive
39 | VYSDDVKVVYMYGTNPFDTV | inactive
40 | QRSTKPW | -0.586 ± 1.9
41 | SSELLLHGGTYYKIIYK | 0.586 ± 0.12
42 | DRSDNRSGYFMINVVYNDGE | 0.724 ± 0.18

Row | Substance | amyloid nucleation score
43 | FGSFVRSMALESYLNYINAA | inactive
44 | FSGRMVSRIDIIYRRKSVMS | 1.28 ± 0.076
45 | NYLYPKLITYYLTSGLRWII | inactive
46 | GSYSGM | inactive
47 | TQLRTVCSTW | inactive
48 | SRDMCAWWVYSGSSQSNECM | inactive
49 | NYEARLSG | inactive
50 | LHMCNS | inactive
51 | SWVVDITDRRSLFIDTPRFT | inactive
52 | DHRNVRRLKVRLTECIE | inactive
53 | NIFNCDRGSFFLLYRGIGFY | inactive
54 | NRIFSVCECMVYGICECVCR | inactive
55 | AHFLLCNLA | inactive
56 | NFVDVRIKFTLTADLGHNSG | 0.756 ± 0.21
57 | VYMGTVWCSRAI | inactive
58 | IVMVIAAGWFN | 0.633 ± 0.2
59 | VFGMKSRDIRIS | inactive
60 | HLELDFNFSVLHTYCYFLAP | inactive
61 | RHGLAWTYVKKSKMRTAAGR | inactive
62 | FNCLHIYWMM | 0.372 ± 0.42
63 | SHVSRVNEVSVISMSDINDH | inactive

Row | Substance | amyloid nucleation score
64 | KFYDHTLCFVDWRDFSW | inactive
65 | FWKAFRFTDSVFPIKHPNLS | inactive
66 | NVVCSTARIEKPMGVLCFMF | 1.92 ± 0.092
67 | TMWTTGTTPPRMISHT | inactive
68 | KCGRSR | inactive
69 | YTTKRL | inactive
70 | FHNCLGTNKNGVLLNGMVWN | inactive
71 | LYSGFI | inactive
72 | YFQGWSMVCSDVSTGKSVVM | inactive
73 | VIFNHVLACADYGVHKVVDL | inactive
74 | FPARLYGYMFLKNSTLRFSR | inactive
75 | NCVYVLESD | -0.075 ± 0.32
76 | IVGLSHDAINTYLWVVVNAP | inactive
77 | VNVNSKYNVFLLMCRGVEVI | inactive
78 | MGEPGVDAFNRLTPKWCLIP | inactive
79 | WLRRN | inactive
80 | PWDDYTAQIGLYSFPPWLYV | inactive
81 | NNLTEEEMDLAPTVSHYLYK | inactive
82 | SSSTFPSSKIDYGTIR | inactive
